Substitutions are numbered along the chain they refer to. Numbers in names are those of the source.
Assays:
[1] = substrate: O=[N+]([O-])c1ccc(O[C@@H]2O[C@@H](CO)[C@H](O)[C@H]2O)cc1; experiment: purified protein; details: pH 5.0, 40 °C, 10 min, 0.1-2.0 mM substrate, 40.0 °C
[2] = substrate: O=[N+]([O-])c1ccc(O[C@@H]2O[C@H](CO)[C@@H](O)[C@H](O)[C@H]2O)cc1; experiment: purified protein; details: citrate phosphate buffer pH 5, 0.1-6 mM substrate

B1: rPoAbf (recombinant α‐L‐arabinofuranosidase from Pleurotus ostreatus) (Pleurotus sp. 'Florida') (protein)
chain: QTVSVSATASHPIPTTLWGQMFEDISHSGDGGLYAELLQNRALQQVTPNTAASLNAWSAINGGQISVVADSVPVSNSLPNSLRFTVPAGRTGQVGFANSGFFGMKIVASSTYKGSFFVKFPTASSFTGNLIVGLRTTSGSTIVSQTVPIRGASTSWQQISVSLTPRTTPPSTDNQFFVTIDGAAASGQTINFAMFSLFPPTFKNRANGMRDDIATALAEMKPKFFRFPGGNNLEGQTVPTRWQWNATIGSLLDRPGRAGDWGYINTDGLGLLEYLLFCEDLGMEPIMAVWAGFALGGTSVAQNGLQPYIQQAIDQINFVIGDPATSAPAARRAALGRAQPFKLTYVEIGNEDFFASDTYTYRWPAFVNALRGAFPNLKFIATSNINSPVLSPNPAQWDHHVYQTPTWFAQNSFFYDDMPRNGVTFFEGEYAAISTNPNDIFGSPANGRLTFSTMQSASGEAAYMIGMERNSDIVFAASYAPLLGHVAGSQWTPNLIAFDTGNVYRSASYFVQKLFSTNMGNEYIPSTLPSRTGTAFWGVTRNTATGEIIIKVSNTVAAQANLTFVLPFANVATSGSLQVLTGAATASNSPTTPSALAPATRTITTGKTFTFAAAGFSVNVITIKAS
Km [1]: 640 ± 110 µM
kcat [1]: 3,010 ± 145 Min^−1
Km [2]: 4070 ± 150 µM
kcat [2]: 0.183 ± 0.01 s⁻¹

B2: rPoAbf (recombinant α‐L‐arabinofuranosidase from Pleurotus ostreatus) (Pleurotus sp. 'Florida'; S160G) (protein)
chain: B1 chain with S140G
Km [1]: 890 ± 190 µM
kcat [1]: 2,590 ± 165 Min^−1
Km [2]: 5030 ± 120 µM
kcat [2]: 0.383 ± 0.015 s⁻¹

From paper PMC5032992
